Test results taken from doi:10.1101/225821 (bioRxiv, 2017).

Experiments:
[1] = target: Fc-tagged SALM3 LRR-Ig-Fn (mouse) (UniProt Q80XU8); test: SPR
SEC-MALS = target: the molecule itself; test: SEC-MALS
[2] = target: RPTPσ Ig1-3meB_(33-331) (mouse) (UniProt B0V2N1); test: SEC-MALS

Row | Molecule | fold lower affinity than for RPTPσ-meB [1] | stoichiometry N (SEC-MALS) | stoichiometry N (SALM3 per RPTPσ (2:1)) [2]
1 | PTPσ Ig1-3_(33-327) (from UniProt B0V2N1 33-327) (domain or fragment) | 10 fold |  | 
2 | SALM5 LRR-Ig_(18-376) (domain or fragment, mouse, UniProt Q8BXA0 18-376, looked up) QICPKRCVCQILSPNLATLCAKKGLLFVPPNIDRRTVELRLADNFVTNIKRKDFANMTSLVDLTLSRNTISFITPHAFADLRNLRALHLNSNRLTKITNDMFSGLSNLHHLILNNNQLTLISSTAFDDVFALEELDLSYNNLETIPWDAVEKMVSLHTLSLDHNMIDNIPKGTFSHLHKMTRLDVTSNKLQKLPPDPLFQRAQVLATSGIISPSTFALSFGGNPLHCNCELLWLRRLSREDDLETCASPALLTGRYFWSIPEEEFLCEPPLITRHTHEMRVLEGQRATLRCKARGDPEPAIHWISPEGKLISNATRSLVYDNGTLDILITTVKDTGAFTCIASNPAGEATQTVDLHIIK |  | 2 | 
3 | SALM3 LRR-Ig-Fn_(17-510) (domain or fragment, mouse, UniProt Q80XU8 17-510, looked up) CPLPCVCQNLSESLSTLCAHRGLLFVPPNVDRRTVELRLADNFIQALGPPDFRNMTGLVDLTLSRNAITRIGARSFGDLESLRSLHLDGNRLVELGSSSLRGPVNLQHLILSGNQLGRIAPGAFDDFLDSLEDLDVSYNNLRQVPWAGIGSMPALHTLNLDHNLIDALPPGVFAQLSQLSRLDLTSNRLATLAPDPLFSRGRDAEASPSPLVLSFSGNPLHCNCELLWLRRLARPDDLETCASPPTLAGRYFWAVPEGEFSCEPPLIARHTQRLWVLEGQRATLRCRALGDPVPTMHWVGPDDRLVGNSSRAWAFPNGTLEIGVTGAGDAGAYTCIATNPAGEATARVELRVLALPHGGNTSAEGGRPGPSDIAASARTAAEGEGTLESEPAVQVTEVTATSGLVSWGLGRPADPVWMFQIQYNSSEDETLIYRIVPASSHHFLLKHLVPGADYDLCLLALSPAAGPSDLTATRLLGCAHFSTLPATPLCHALQ |  | 2 | 
4 | SALM3 LRR-Ig_(17-367) (domain or fragment, mouse, UniProt Q80XU8 17-367, looked up) CPLPCVCQNLSESLSTLCAHRGLLFVPPNVDRRTVELRLADNFIQALGPPDFRNMTGLVDLTLSRNAITRIGARSFGDLESLRSLHLDGNRLVELGSSSLRGPVNLQHLILSGNQLGRIAPGAFDDFLDSLEDLDVSYNNLRQVPWAGIGSMPALHTLNLDHNLIDALPPGVFAQLSQLSRLDLTSNRLATLAPDPLFSRGRDAEASPSPLVLSFSGNPLHCNCELLWLRRLARPDDLETCASPPTLAGRYFWAVPEGEFSCEPPLIARHTQRLWVLEGQRATLRCRALGDPVPTMHWVGPDDRLVGNSSRAWAFPNGTLEIGVTGAGDAGAYTCIATNPAGEATARVELR |  | 2 | 2
5 | SALM1 LRR-Ig-Fn_(20-518) (domain or fragment, mouse, UniProt Q80TG9 20-518, looked up) ACPKYCVCQNLSESLGTLCPSKGLLFVPPDIDRRTVELRLGGNFIIHIGRQDFANMTGLVDLTLSRNTISHIQPFSFLDLESLRSLHLDSNRLPSLGEDTLRGLVNLQHLIVNNNQLGGIADDAFEDFLLTLEDLDLSYNNLHGLPWDSVRRMVNLHQLSLDHNLLDHIAEGTFADLQKLARLDLTSNRLQKLPPDPIFARSQASLLTATPFAPPLSFSFGGNPLHCNCELLWLRRLERDDDLETCGSPGSLKGRYFWHIREEEFVCEPPLITQHTHKLLVLEGQAATLKCKAIGDPSPLIHWVAPDDRLVGNSSRTAVYDNGTLDILITTSQDSGPFTCIAANAAGEATATVEVSIVQLPHLSNSTSRMAPPKSRLSDITGSSKTSRGGGGSGAGEPPKSTPERAVLVSDVTTTSALVKWSVSKSAPRVKMYQLQYNCSDDEVLIYRMIPASNKAFVVNNLVSGTGYDLCVLAMWDDTATTLTATNIVGCAQFFTKAD |  | 2 | 
